Assay results taken from patent US20230203146A1 (Boehringer Ingelheim, published 2023).
Like-named read-outs stand apart in the source and are kept apart here.

Assays:
[1] = target: T1, N-terminally FLAG-tagged mouse Ang2 (HEK293T conditioned medium) (mouse, UniProt O35608 19-496); experiment: competition ELISA, FLAG-mAng2 on coated mTie2-Fc
T1 construct: may be a nucleotide entry; also called mAng2; FLAG-mAng2
T1 sequence: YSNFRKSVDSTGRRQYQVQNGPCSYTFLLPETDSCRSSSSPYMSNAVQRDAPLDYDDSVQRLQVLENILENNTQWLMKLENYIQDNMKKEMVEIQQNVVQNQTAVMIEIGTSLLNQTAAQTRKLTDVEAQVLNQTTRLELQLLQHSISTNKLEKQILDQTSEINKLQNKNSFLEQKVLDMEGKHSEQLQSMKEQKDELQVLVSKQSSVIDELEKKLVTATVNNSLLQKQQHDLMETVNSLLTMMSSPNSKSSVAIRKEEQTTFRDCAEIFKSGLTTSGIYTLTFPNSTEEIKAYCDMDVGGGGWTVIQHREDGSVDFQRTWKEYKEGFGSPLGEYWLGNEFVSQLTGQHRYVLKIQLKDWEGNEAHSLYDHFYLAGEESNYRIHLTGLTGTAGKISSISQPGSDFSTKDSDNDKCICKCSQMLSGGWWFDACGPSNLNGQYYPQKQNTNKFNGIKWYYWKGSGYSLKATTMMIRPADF
Procedure: (§1) In brief, 2 μg/mL of recombinant mouse Tie2-Fc or cyno Tie2-Fc is coated overnight at 4° C. in a 96-well MaxiSorp plate (Nunc, Wiesbaden, Germany). Coated wells are blocked with a 1% casein solution.

[2] = target: T2, N-terminally FLAG-tagged cynomolgus Ang2 (HEK293T conditioned medium) (cynomolgus, UniProt O15123 19-496 (human entry), limits assumed); experiment: competition ELISA, FLAG-cAng2 on coated cTie2-Fc
T2 construct: may be a nucleotide entry; also called cAng2; FLAG-cAng2
T2 chain: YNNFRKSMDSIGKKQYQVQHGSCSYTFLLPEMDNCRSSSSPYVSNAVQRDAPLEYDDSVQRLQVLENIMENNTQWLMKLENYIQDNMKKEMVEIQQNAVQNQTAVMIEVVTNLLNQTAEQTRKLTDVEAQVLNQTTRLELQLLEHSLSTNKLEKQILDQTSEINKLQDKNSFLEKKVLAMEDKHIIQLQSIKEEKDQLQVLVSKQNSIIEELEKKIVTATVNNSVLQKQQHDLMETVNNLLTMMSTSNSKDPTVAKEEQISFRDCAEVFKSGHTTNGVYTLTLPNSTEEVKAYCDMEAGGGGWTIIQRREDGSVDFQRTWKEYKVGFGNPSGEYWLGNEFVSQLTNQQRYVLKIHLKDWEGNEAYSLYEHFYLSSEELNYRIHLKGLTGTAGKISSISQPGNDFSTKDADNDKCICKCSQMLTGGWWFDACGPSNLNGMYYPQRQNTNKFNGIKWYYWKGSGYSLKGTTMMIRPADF
Procedure: as §1

[3] = target: T1, N-terminally FLAG-tagged mouse Ang2 …; experiment: competition ELISA, FLAG-mAng2 on coated mTie2-Fc; remark: listed apart in the source
Procedure: as §1

[4] = target: T3, FLAG-tagged recombinant human Ang1 (Alexis Biochemicals) (human, UniProt Q15389 20-498, limits assumed); experiment: ratio of IC50 in hAng1/hTie2 ELISA to IC50 in hAng2/hTie2 ELISA
T3 construct: Bought reagent; also called hAng1; FLAG-hAng1
T3 sequence (looked up): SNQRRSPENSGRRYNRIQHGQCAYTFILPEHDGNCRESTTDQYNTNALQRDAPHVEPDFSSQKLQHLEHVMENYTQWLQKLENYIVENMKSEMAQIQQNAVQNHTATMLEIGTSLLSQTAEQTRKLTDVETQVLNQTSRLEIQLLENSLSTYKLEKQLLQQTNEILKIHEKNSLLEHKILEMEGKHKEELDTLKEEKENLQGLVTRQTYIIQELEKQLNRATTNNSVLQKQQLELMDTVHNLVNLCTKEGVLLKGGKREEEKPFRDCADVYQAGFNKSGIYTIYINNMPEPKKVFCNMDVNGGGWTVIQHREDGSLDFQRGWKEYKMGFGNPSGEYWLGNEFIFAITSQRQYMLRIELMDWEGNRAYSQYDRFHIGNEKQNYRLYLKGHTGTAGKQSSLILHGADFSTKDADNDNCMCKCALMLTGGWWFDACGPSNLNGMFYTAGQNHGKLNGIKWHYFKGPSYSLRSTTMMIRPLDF
Procedure: In brief, 2 μg/mL of Tie2/Fc chimera (R&D Systems, Minneapolis, Minn., USA) is coated in a 96-well MaxiSorp plate (Nunc, Wiesbaden, Germany).
In brief, 2 μg/mL of recombinant human Tie2-Fc (R&D Systems, Minneapolis, Minn., USA) is coated overnight at 4° C. in a 96-well MaxiSorp plate (Nunc, Wiesbaden, Germany). Coated wells are blocked with a 1% casein solution.

[5] = target: T4, recombinant cynomolgus Ang2-FLD (cynomolgus); experiment: SPR (Biacore T100), binder on CM5 chip, Ang2-FLD as analyte
T4 construct: domain: FLD; also called cyno Ang2-FLD
Procedure: (§2) In brief, VHH and benchmark compounds are immobilized on a CM5 chip via amine coupling. […] Ang2-FLD species are allowed to associate for 2 min and to dissociate for 20 min at a flow rate of 45 μL/min. In between injections, the surfaces are regenerated with a 10 sec pulse of 25 mM NaOH and 60 sec stabilization period. Association/dissociation data are evaluated by fitting a 1:1 interaction model (Langmuir binding). The affinity constant KD is calculated from resulting association and dissociation rate constants kₐ and kd and are depicted in Table 8.

[6] = target: T5, recombinant mouse Ang2-FLD (mouse, UniProt O35608 275-496, limits assumed); experiment: as above
T5 construct: domain: FLD
T5 sequence (looked up): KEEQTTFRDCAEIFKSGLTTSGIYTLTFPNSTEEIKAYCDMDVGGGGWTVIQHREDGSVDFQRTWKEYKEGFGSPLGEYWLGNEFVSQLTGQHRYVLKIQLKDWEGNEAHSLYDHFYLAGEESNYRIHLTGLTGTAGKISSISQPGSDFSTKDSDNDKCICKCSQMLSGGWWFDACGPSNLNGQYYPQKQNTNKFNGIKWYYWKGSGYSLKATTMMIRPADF
Procedure: as §2

[7] = target: T6, recombinant human Ang2-FLD (human, UniProt O15123 275-496, limits assumed); experiment: as above
T6 construct: domain: FLD; not used
T6 sequence (looked up): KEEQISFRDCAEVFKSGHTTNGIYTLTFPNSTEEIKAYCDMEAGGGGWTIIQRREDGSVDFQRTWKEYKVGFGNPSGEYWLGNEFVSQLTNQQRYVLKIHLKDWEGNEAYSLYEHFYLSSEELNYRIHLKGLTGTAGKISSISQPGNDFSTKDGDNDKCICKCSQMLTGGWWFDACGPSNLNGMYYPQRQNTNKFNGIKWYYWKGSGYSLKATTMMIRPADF
Procedure: as §2

| Binder | IC50 [1] [pM] | IC50 [2] [pM] | IC50 [3] [pM] | hAng1/hAng2 ratio [4] | Kd [5] [pM] | koff [5] [s⁻¹] | kon [5] [M⁻¹ s⁻¹] | Kd [6] [pM] | koff [6] [s⁻¹] | kon [6] [M⁻¹ s⁻¹] | Kd [7] [pM] | koff [7] [s⁻¹] | kon [7] [M⁻¹ s⁻¹] |
| --- | --- | --- | --- | --- | --- | --- | --- | --- | --- | --- | --- | --- | --- |
| VHH 7G08 (VHH, also called 007G08; not shown: C-terminal c-myc tag and His6 tag) VHH: EVQLVESGGGLVQPGGSLRLSCAASGFALDYYAIGWFRQVPGKEREGVSCISSSDGITYYVDSVKGRFTISRDNAKNTVYLQMNSLKPEDTAVYYCATDSGGYIDYDCMGLGYDYWGQGTQVTVSS | 70 | 140 | 90 | > 2.33e+06 | 72 | 0.00011 | 1.5e+06 | 180 | 0.00014 | 810000 | 97 | 0.0001 | 1e+06 |
| VHH 37F02 (VHH, also called 037F02; not shown: C-terminal c-myc tag and His6 tag) VHH: EVQLVESGGGLVQPGGSLRLSCAASGFALDYYAIGWFRQAPGKEREGVSCISSSDGITYYVDSVKGRFTISRDNAKNTVYLQMNSLKPEDTAVYYCATDSGGYIDYDCMGLGYDYWGQGTQVTVSS | 90 | 100 | – | > 100000 | – | – | – | – | – | – | – | – | – |
| VHH 37A09 (VHH, also called 037A09; not shown: C-terminal c-myc tag and His6 tag) VHH: EVQLMESGGGLVQPGGSLRLSCAASGFALDYYAIGWFRQVPGKEREGVSCISSSDGITYYVDSVKGRFTISRDNAKNTVYLQMNSLKPGDTAVYYCATDSGGYIDYDCMGLGYDYWGQGTQVTVSS | 100 | 200 | – | > 100000 | – | – | – | – | – | – | – | – | – |
